Assay results taken from patent publication US12630594B2, “Allergy antigen and epitope for same” (HOYU CO., LTD., priority 2017, dated 2026).

Test system: IgE antibody in the serum of a fish-allergic patient
Test: Immunoblotting of two-dimensional electrophoresis patterns of fish meat proteins with patient serum
Type: binding, human
Conditions: spots in two-dimensional electrophoresis gel of proteins in fish; patients diagnosed with immediate-type allergy
Description: Proteins contained in fish were analyzed by the aforementioned technique to identify antigens of an allergy to fish. To be specific, proteins were extracted from fish meat and subjected to two-dimensional electrophoresis under the conditions described below.
The electrophoresis in the first dimension was isoelectric focusing, which was performed using isoelectric focusing gels with a gel-strip length of 5 to 10 cm and a gel pH range of 3 to 10. The pH gradient of the gels in the direction of electrophoresis was as follows: with the total gel-strip length being taken as 1, the gel-strip length up to pH 5 was “a=0.15 to 0.3”, the gel-strip length from pH 5 to 7 was “b=0.4 to 0.7”, and the gel-strip length above pH 7 was “c=0.15 to 0.3”. More specifically, the isoelectric focusing was performed using the IPG gels, Immobiline Drystrip (pH3-10NL), produced by GE Healthcare Bio-Sciences Corporation (hereinafter abbreviated as “GE”). The electrophoresis system used was IPGphor produced by GE. The maximum current of the electrophoresis system was limited to 75 μA per gel strip. The voltage program adopted to perform the first-dimensional isoelectric focusing was as follows: (1) a constant voltage step was performed at a constant voltage of 300 V until the volt-hours reached 750 Vhr (the current variation width during electrophoresis for 30 minutes before the end of this step was 5 μA); (2) the voltage was increased gradually to 1000 V for 300 Vhr; (3) the voltage was further increased gradually to 5000 V for 4500 Vhr; and then (4) the voltage was held at a constant voltage of 5000 V until the total Vhr reached 12000.
The electrophoresis in the second dimension was SDS-PAGE, which was performed using polyacrylamide gels whose gel concentration at the distal end in the direction of electrophoresis was set to 3 to 6% and whose gel concentration at the proximal end was set to a higher value than that at the distal end. More specifically, the SDS-PAGE was performed using NuPAGE 4-12% Bris-Tris Gels (IPG well, Mini, 1 mm) produced by Life Technologies. The electrophoresis system used was XCell SureLock Mini-Cell produced by Life Technologies. The electrophoresis was run at a constant voltage of 200 V for about 45 minutes using an electrophoresis buffer composed of 50 mM MOPS, 50 mM Tris base, 0.1% (w/v) SDS and 1 mM EDTA.
Identification of antigens by immunoblotting was carried out by taking all the steps up to the step of “Second-dimensional SDS-PAGE” as described above in Example 1, followed by the steps of “Transfer to membrane”, “Immunoblotting” and “Analysis” as described below.
To be specific, proteins in the second-dimensional electrophoresis gels were transferred to a membrane (PVDF membrane) according to the following procedure. • (1) The PVDF membrane was immersed in 100% methanol followed by milliQ water, and then moved into the transfer buffer to hydrophilize the PVDF membrane. • (2) After sponge, filter paper, the second-dimensional electrophoresis gels treated by second-dimensional SDS-PAGE, the hydrophilized PVDF membrane, filter paper, and sponge were put in place in this order, the transfer system was energized at a constant voltage of 30 V for one hour. Immunoblotting
Immunoblotting of the membrane was carried out using, as a primary antibody, a serum sample from patient 1 with a fish allergy or a serum sample from a non-fish-allergic subject. This fish-allergic patient 1 was a patient diagnosed with immediate-type allergy to fish. […]

specific binding to IgE antibodies from fish-allergic patients: specific binding to IgE antibodies
B1: Serotransferrin (protein)
chain: MKLLLVSALLGCFATVYAAPAEGMVRWCVKSEKELKKCHDLAANVAGFSCVRRDDSLECIQAIKREEADAITLDGGDIYIAGLHNYNLQPIIAEDYGEDSDTCYYAVAVAKKGTEFGFLDLRGKKSCHTGLGKSAGWNIPIGTLVTVGQIQWAGIEDRPVESAVSDFFNASCAPGANRDSQLCQLCMGDCSRSHNEPYYDYSGAFQCLKDGAGEVAFIKHLTVPAAEKASYELLCKDNTRAPIDSYKTCHLARVPAHAVVSRKDPRLANLIYSKLMAVTNFNLFSSDGYAAKNLMFKDSTQNLVQLPMTTDSFLYLGAEYMSTIRSLTKAQATGVTSRAIKWCAVGHKEKVKCDAWTINSFTDGDSRIECQDAPTVDECIKKIMRKEADAIAVDGGEVFTAGKCGLVPVMVEQYDEVRCSAPGEASSYFAVAVAKRGSGLTWTTLKGKRSCHTGLGRTAGWNIPMGLIHRRTMNCDFTTYFSKGCAPGFEVDSPFCAQCKGSGKSVGGDGSKCKASSEEQYYGYNGAFRCLVEDAGDVAFIKHTIVPEMTDGSGPVWAQNLMSSDFELLCQDGTTKPVTHFRECHLAKVPAHAVITRPESRGEVVSILLEQQARFGSSGSDSSFNMFKPDFGKNLLFKDSTKCLQEIPSGTKFQGFLGEEYMIAMQSLRECSNSTSDLEKACTFHSC
modifications: Serotransferrin
